# Results taken from the domain aggregation screens of Martell et al. (2025).
# Test: soluble fraction after stress (log2 fold change); higher = more stays soluble; pooled small domains, quantitative proteomics
# Details: stress: pH 4
# Outline: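 Aggregation propensity is estimated from the fold change in each domain's soluble amount after acid stress. Pooled small-domain libraries were stressed at pH 4, and higher log2 values mean more stayed soluble.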
row,Sequence,soluble fraction (log2)
1,HMSAMKYTSEVFQRLSRGQFISSNSIDAETRAIYSDIEENQQEYEDYFSKIDFLLSSGDGFYYFSRK,-1.22
2,HMSAMSPTEVGERLRLAREAVRMTQKQAADAISVARTTLVAIEQGQRRVRIDELQQLAKTYGVSVNAILR,0.27
3,HMSAPAKKPKIKVDLSKVHAGTIVRHKGYGLGQVKGIDGAIIVVTFDGVDKKFQFPGGFENGFLFLTED,-1.21
4,HMSAPLKELGNDPESGKPIVVKDGRFGAYVTDGETNATLRKTDAVESLTPERAAELLAEKRAKG,0.199
5,HMSAPTAFSERELELLAGMRRGASNKAMAEQLFISVNTVKYHRANLMRKLGARDRNEALEVAARLG,-0.179
6,HMSAQDLIVKTDATQVEARVLEISPEQIRYKRFSNPDGPTYVLPVDAVDYIRYANGETDSFR,-0.446
7,HMSASAIYVRPKDVKEPEEVADYLSGVLELDREKLYKKITDKSQWIALIERKVDNDIAFDIRNKKFKGIEI,-0.784
8,HMSASIAEGTVIMLENTTNIRSGMSEDSSKVGTAYAGEKVTVVMSYAEGWTKVKWNGETGYIKTALLQL,-0.405
9,HMSASNSIDFANRMIYNKNQVAVFNFGKHMGRPVLEVLKSDPSYYDWMMKGDFPMDTKRKLTEIKLQGF,-0.173
10,HMSATPQRMTIIDALDSSGKNLSAYELLDLLNDKGQLFNISTIYRVLDFWIEMGIVHKINSSNTYL,0.132
11,HMSATQDAAIAVRIRDILSELDGYEDVTVTVTSGIVTMRGTTLDSEKIARLNDLTGRVEGVVAIENSVTET,-2.31
12,HMSAVIGTATVTTSSGSLNLRESASLYSRVIRTIPRGATVDVLSRDTSWSRVRYAGSEGYVLNQYLTFQT,≥ 0.43
13,HMSDAGMNQIGDMFRAPDLMAKLAMNPATREYVSQPDFLAMMEEVKRNPSALNNHLRDPRMMNVLSVAM,-0.48
14,HMSDAPLLSIRSLAVAFDGTRVVDGVSFDVARGEVVALVGESGSGKTVTGLSLLDLVPPPGRRVGGEV,-0.025
15,HMSDDAVVRMRVPEDALGLSLRETDFRQRFGVYVLAIETRDGKLLAPPDPQRPLGKDDVLVVIQKR,-0.279
16,HMSDDLLTGLDAYSRGDWTTATASFERVLTTADPNNRTEALYWLVMSETSAQNYQRALNYANTFL,-0.887
17,HMSDDSTIVELLASSLRRDIAFGTLLPDQKLKLNELRTRYGGSIHSMRETLRILSAEGLVEATAQRGFRVT,-0.395
18,HMSDEIQLQFIQISIFKDHPWADMQIKDMNIIPDLLIVMILRDGERIIPNGNTRIMPGDMVIITAMSANT,-1.7
19,HMSDESALIAAIEKAIAAQPETAEKVRNGHLPAAGALIGSVMKETKGQADAARVRELLLGLLGQ,0.0231
20,HMSDESRAEIVSSAKRLFQQYGYKKTTVSDIAKAMGKVKSAIYYYFPDKESLLRAVIDEEVG,0.132
21,HMSDFEASDPALLREGMRVQHLNFGKGTVITIEGAGANKKASVAFDGVGTKQLMLRFARLKIIYE,-0.622
22,HMSDFKDIILKLRNEQGFTQEKLADVLGTSKSTVGMWEMGVRFPSKELYEAIADYFNVDIDYLYGRTDIR,-1.35
23,HMSDGYETLVNMAKPFLNNSKQITENDITDAVNTVSVMLKKRYDMTDEDIRKAVSELLHFYA,-0.791
24,HMSDIDHIAGRRIRQARLNAGMTLETLASQAGISKALLSKIENSKVSSPLATFSKISKVLGVPLSDLLKE,0.204
25,HMSDILALMPGTIKQILVAPGDSVKRGQTVIIMESMKMELTIAAHRDGVVKRIPVEQGGQVEKGMRLLELE,-0.263

row,Sequence,soluble fraction (log2)
1,HMSDIPEGYMSRVQLGDEWGIHLATFDKAVIAVKEKLGTVVFIDKSNNTTAGYSPEQQTIIYDWLAEN,0.29
2,HMSDKNVYGKYKNVFLSDEEFSELKQFYPNDWSDRIETLSEGIELKGYKYKNYLLAIKKWAEYEGQKAD,-0.77
3,HMSDKPIFIDTAGIAALSAIGFSKYQATIIFNYIKKGGAIYTVKDLAKIYSIDQKTIDLTQSKIIFS,0.22
4,HMSDKPRYYINGNTLFISDKSVKKVLFSDLSGRSILHTTETAINIATFRGAHILTVIYTDGSTKSEVIF,0.235
5,HMSDLLYAHPTEKGFQLVNVTQKVVMVILKTAAPNVYTVKGKNAIVFKEGNSWFYSENHNKKLLNIK,-0.1
6,HMSDLQTGDINQDGTVDEKDLSLLHSYNLELIKTISNAADLNEDGVINGLDEAYLKRLFLQNSDP,-0.142
7,HMSDLTEVIVKFSGDIQPIRQDLDAQVEILLKGYAIITLSPNKIGRLYSYPQIESIEIPKNLYI,-0.833
8,HMSDPASLQRRLMSDPELTARILDSPFTRSLLDDPNLLRQMVNANPQLRRAMDANPQLRHAL,-0.261
9,HMSDPEAFIRQTVAAAEPEGIALSVLGKRVRGKFRTFKLRDLGYAQFRPYLGDLDGIKVEQRDGQSYARLD,0.045
10,HMSDPSRKADFIAALSSLGGSAGNGKLREQLGWDEPTYDAVKQTLLDEGAITNGRGRGGSVALAG,0.146
11,HMSDPTDRLVLEAALKALGEEERQVVLLHAASGLKHREIARDLGLPLSTVLSRYSRALKKLQRYLTEEGVH,-0.461
12,HMSDPVDDLLLRISQQAGVARGQLVAELNMLVQDRFGGNLRHEAAAVLMAKRYGIEFRDLLPALREHLVKN,-0.469
13,HMSDPVKQVAMRILDLREISDYTVDKMAEVLNVPVEEYRKYESGEVDMPISFLVKIGEVFHVDMTELLTG,-0.679
14,HMSDQTYVKDPETGEIFRVHKRVWETGEFWRDPVWGNILGGVERGSELERLLREEGWRPLQQSLEGFPEQ,-0.276
15,HMSDRESYGRYRNVSLTLSEYESLKNEYPLYADKYIERLSEYMETAGKHYNNHYATILSWLSKDIK,-0.8
16,HMSDSGLPLPRFVSLGDDRVNARAGPGFRFPINWVYLRKNFPVEVIDEFGHWRRIKDIDGIEGWIHLSML,-0.734
17,HMSDTSELESIIAQIIEDNPKSIEDIGAGNQKAYGFLTGQVMKATKGQANPQVANKIIRELVARKLE,-0.41
18,HMSDTVDITKLGIAGKTKEAAEALLKENGFSVESKEENSDTIEKGKVISYSPTKPKNGDRITLIVSSGKK,0.301
19,HMSEDTYNTLTKGTRVYNGVDYGAKYGYNPLYYFLNYNDLRIAYGADPAKLVEHYALFGIKENRVANRQIT,-0.247
20,HMSEEELETSGLVKRSAKGNLYDIFRHRVMVPIIDVRGAIIAFGGRVLDDSKPKYINSPETMVY,0.0468
21,HMSEEQLKAFLEKVQGDTSLQEKLKAAADANAVVEIAKEAGFSISADDLKNAQSELSEEELE,-0.257
22,HMSEEVDVPDLVGMQLEEAEKSLEPLGLKLKIAKEIPNSEFEKGKIVDQKTKAGEKVKTGYTIEVTVSSG,-0.0107
23,HMSEFAYPISLNGKTKFNLALSLALTKEEIEKEVLANADVQKFLNGQTPKKLIVVPGKIVNVV,0.123
24,HMSEGEMSQWIIAQAKQQGGGFQPDAARLLGSYVGNNTLRARQEIDKLLTYVGPSRVVTPEDVVLLTA,-0.0309
25,HMSEHKFIVPEEFNLKRLDQTVAAQFEKISRTKISKIIKSSLLKVNDKVVTDQSIKIKQDDVITFTEIKDQ,0.237

row,Sequence,soluble fraction (log2)
1,HMSEKRLHLVVDESDVNTRIDKYIADELDGYSRSFIQKLIKDNNVLVNGRAVKPNYNIGISDNIDIVLPKL,0.188
2,HMSELIDSLTEAVRSAPDAVPLRLHLAELLLADGQRDRAFAQLGQVLAKDPQNARALEMLGVGS,-0.373
3,HMSELSEVIEKTFEELPEELKLIVKLREIDDLSYDEISNKIGIPIGTVRSRLHRAREILINIIKN,-1.01
4,HMSELSGSQLKAIREEKHIPLEQVASATRIRLSLLEALEMDEYAELGSRTQARGFLKLYADFLGVPFEA,0.00575
5,HMSEMDNMEWVREQYFQNMIYEIGEWVRDKKTGIVGEVVKRGTNYVTVVQEDFSLHKIWLEDLETTEK,-0.966
6,HMSEMLPFDEARRQFERDYLVQLLKLTSGNVSQAARLARRNRTDFYALLGRHQLEPASFKPE,-0.641
7,HMSEMVIPEDFLAALETNPQAKAFYATLNRQNQYAVYHRLQTAKRPETRAKRIADFVAQLAAGKRF,-0.00136
8,HMSEPHPPFQVVAQFPYKSEYEDDLNFEKDQIITVTSIEDDEWYYGDFKNKGGELVEGIFPKSFVTVK,-0.867
9,HMSEPQYKVLFSNLDDRDGGAIVTALGAMNVPYKYNDTGTALLVPADRVYDARLQLASQGLPRG,0.172
10,HMSEPTVVAINETLTSERLDRYLTTQLPHISRGGIQRLLRKGNILVDGKPAKPTQHPVAGQTVEITWPIPK,-0.02
11,HMSEQMQVGELVFQLHRKAIKNLHINVLPPDGFVRVSAPQAMTETAIRTAVISRLPWIRRQQQAFAAQ,≥ 0.43
12,HMSERVVEIDPSQLRPGLFIRLPSGWMNHPFLFNQFRINSAEQVEIIQKLGLKTVQYLPERSSTQALPRA,-0.644
13,HMSESEDFQNRWRPWRSLLDDETPVVREALVDQLKLFPEEGRLFLQQMSEEDDPISARHAFELIKSLGW,-1.11
14,HMSETAVTYNEDFEADGSLRPNEQAVLDAFTGVLKLTVSELEKKTGLRNVVPVVASLMAKGAVEVSEELK,-0.763
15,HMSETEWGEIYRKVMAAGLIPARSVRERLLALPSIEPLLQAAEAAGSKGMLDETLLDSLLSKT,-0.539
16,HMSETLESYTTRLKQLEEIADSFQGVDKTFAIQAGREIRVMVVPEQISDDDMILLARDISNQIEENLDY,-0.912
17,HMSEVIYVAEDNVGQRIDVFLVNKLVDASRANIQKNIVDGVILVNNKNVKANYKLRLGDVVEIRTQ,-0.317
18,HMSEVPAAVLVTGGSINLREAPSTDATIIDVAQVGEKMTVLAEKNSWYQVSRGGRNVWVASWVVDPLT,-0.566
19,HMSEVTYQETLRLLRRAIDVLPQQSRQIILLGLSGKNNNEVAEMLGISVNTVKTLKKGAYKSLRNSL,-0.281
20,HMSEYITEGWLREKFGLGWGTEVHLPLDSRLTPAAHQLLEERKIVIKYIDAEGRVFNPDKSGEEAPVQ,-0.343
21,HMSEYVIVTGEKVNLRVGPGMDYEIAGQVVKGDKLELLASEGDWSKVKTGSGSIYYISSSLVQKA,-0.334
22,HMSFDGFSDRLKSVLNSGKYTQKEAAEKINISEYSFTKYLNGRIPQTEILYKIARLYNKSMEWLLTGKDPI,-0.158
23,HMSFGWELYKGKEGIADTDLHPSGWIRIADKRVFAVSEGEFIEKGLEIIVLSVDGNRIVVRELK,-0.445
24,HMSFGWETLEGKEGVTDTDLHPSGWVKVGDEKIFVVSQGEFLGKGTDIVVVSVDGNRVVVKELI,-1.11
25,HMSFKQARFMMDAANGKALAWLYSHAEVLDRKDQGENIEIHVMISPADLSRFVNAFGYQPVQS,-0.0667
